Test results published in article doi:10.1101/2021.03.15.435440 (bioRxiv, 2021).
Read-outs that look alike come from different tables or passages of the source.

What was measured:
[1] = target: T1, wildtype SARS-2 RBD (SARS-CoV-2, GenBank MN975262.1 …, UniProt A0A679G9E9)
[2] = target: T1, wildtype SARS-2 RBD; assay: BLI

B1: Ab19 (antibody, V domains shown)
VH: QVQLQQSGAELARPGASVKLSCKASGYPFTSYGINWVKQRTGQGLEWIGEIYPRIGNTYYNEKFKGKATLTADKSSSTAYMEFRSLTSEDSAVYFCARSWNSNYGEYYFDYWGQGTTLTVS
VL: DIVMTQSHKFMSTSIGDRVSITCKASHDVSTAVAWYQQKPGQSPKLLIYWASTRHTGVPDRFTGSGSGTDYTLTIRSVQAEDLALYYCQQHYSTPYTFGGGTKLEIK
[1]
  binding result: binds

B2: Ab20 (antibody, V domains shown)
VH: EVQLQQSGPELVKPGASVKISCKASGFSFTGYSMNWMKQSPEKSLEWIGEINPTTGGTTYNQKFKAKATLTVDKSSSTAYIQLKSLTSEDSAVYYCARGRADYWGQGTTLTVSS
VL: DIVLTQSPASLAVSLGQRATISCRASESVEYYGTGLVQWFQQKPGQPPKLLIYAASNVESGVPARFSGSGSGTDFSLNIHSVEEDDIAMYFCHQSRKLPWTFGGGTKLEIK
[1]
  binding result: binds

B3: Ab15 (antibody, V domains shown)
VH: EVQLQQSGPELVKPGASVKISCKASGYSFTGYYMNWVKQSPEKSLEWIGEINPNFGGTTYNQKFKAKATLTVDKSSSTAYMQLKSLTSEDSAVYYCARYYGNLYAMDYWGQGTSVTVS
VL: DILMTQSPSSMSVSLGDTVSITCHASQGISSNIGWLQQKPGKSFKGLIYHGTNLEDGVPSRFSGSGSGAAYSLTISSLESEDFADYYCVQYTHFPYTFGGGTKLEIK
[1]
  binding result: binds

B4: Ab16 Fab (Fab, V domains shown)
VH: EVQLQQSGPELVKPGASVKISCKASGYSFNNYYMNWVKQSPEKSLEWIGEINPNSGYTSYNQKFRAKATLTVDKSSTTAYMQLKSLTSEDSAVYYCARYFGNLFAMDFWGQGTSVTVS
VL: DILMTQSPSSMSVSLGDTVSITCHASQGIGSNIGWLQQKPGKSFKGLIYLGTNLEDGVPSRFSGSGSGADYSLTISSLESEDFADYYCVQYVQFPYTFGGGTKLEIK
[2]
  binding result: binds
